According to US20080008707A1, “Denatured collagen peptides and uses thereof” (Cell-Matrix, Inc., priority 2006, published 2008):
Square brackets hold non-standard residues; d marks the D form. Ends that are not written are not given here. Hyp = O=C(O)[C@@H]1C[C@@H](O)CN1

Columns and labels:
[1] = molecular target: HUI77, murine IgM anti-denatured-collagen monoclonal antibody; assay: competition ELISA on coated dn-collagen IV
[2] = molecular target: D93, recombinant humanized IgG1 kappa antibody targeting denatured-collagen; assay: competition ELISA on coated human dn-collagen IV
D93, recombinant humanized IgG1 kappa antibody targeting denatured-collagen, sequence (heavy, as listed by the source, chain 1 of 2): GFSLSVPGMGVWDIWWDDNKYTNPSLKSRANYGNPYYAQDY
D93, recombinant humanized IgG1 kappa antibody targeting denatured-collagen, sequence (light, as listed by the source, chain 2 of 2): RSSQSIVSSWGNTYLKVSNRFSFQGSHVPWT

[3] = molecular target: HUI77, murine IgM anti-denatured-collagen monoclonal antibody; assay: competition ELISA on coated dn-collagen IV; * separate assay
[4] = molecular target: D93, recombinant humanized IgG1 kappa antibody targeting denatured-collagen; assay: competition ELISA on coated human dn-collagen IV; * separate assay

% inhibition of HUI77 binding to dn-collagen IV, peptide 10 µM [1] [%]	% inhibition of HUI77 binding to dn-collagen IV, peptide 100 µM [1] [%]	% inhibition of HUI77 binding to dn-collagen IV, peptide 1000 µM [1] [%]	% inhibition of D93 binding to dn-collagen IV, peptide 1 µM [2] [%]	% inhibition of D93 binding to dn-collagen IV, peptide 10 µM [2] [%]	% inhibition of D93 binding to dn-collagen IV, peptide 100 µM [2] [%]	% inhibition of D93 binding to dn-collagen IV, peptide 1000 µM [2] [%]	% inhibition of HUI77 binding to dn-collagen IV, peptide 10 µM [3] [%]	% inhibition of HUI77 binding to dn-collagen IV, peptide 100 µM [3] [%]	% inhibition of HUI77 binding to dn-collagen IV, peptide 1000 µM [3] [%]	% inhibition of D93 binding to dn-collagen IV, peptide 1 µM [4] [%]	% inhibition of D93 binding to dn-collagen IV, peptide 10 µM [4] [%]	% inhibition of D93 binding to dn-collagen IV, peptide 100 µM [4] [%]	% inhibition of D93 binding to dn-collagen IV, peptide 1000 µM [4] [%]	Binder
6.5	18	86	13	35.5	85.5	92.5	–	–	–	–	–	–	–	LPGP[Hyp]GP[Hyp]G [synthetic peptide No. 20, … (SEQ ID NO: 21)]
7.5	18	86.5	30	81	93.5	93.5	–	–	–	–	–	–	–	[Hyp]GAKGLPGP[Hyp]GP[Hyp]GPY [synthetic peptide No. 12, … (SEQ ID NO: 2)]
–	–	–	–	–	–	–	10.2	0	3.7	5.4	7.8	8.3	11.6	LPGFPG (also: hydroxyproline marking, if any, lost) [synthetic peptide No. 24, LPGFPG (SEQ ID NO: 38)]
8	10.5	10	11	6	4	11.5	–	–	–	–	–	–	–	[Hyp]GAKGLPGP [synthetic peptide No. 13, … (SEQ ID NO: 17)]
10	14	73	12	41.5	89	92.5	–	–	–	–	–	–	–	LPGP[Hyp]GP[Hyp]GP [synthetic peptide No. 5, … (SEQ ID NO: 20)]
2.5	8	3.5	7	6	3.5	7.5	–	–	–	–	–	–	–	GPPG (also: hydroxyproline marking, if any, lost) [synthetic peptide No. 22, GPPG (SEQ ID NO: 35)]
1.5	2	1	5	4.5	1.5	6.5	–	–	–	–	–	–	–	GPPGPPG (also: hydroxyproline at marked P positions, if any, marking lost) [synthetic peptide No. 23, GPPGPPG (SEQ ID NO: 33)]
4.5	9	62	11	43	89.5	93.5	–	–	–	–	–	–	–	F[Hyp]GP[Hyp]GPDGL[Hyp]GSMGP[Hyp]G [synthetic peptide No. 7, … (SEQ ID NO: 36)]
